According to the Immune Epitope Database (IEDB):

What was measured:
HLA-A*30:01 = test: IEDB peptide-MHC binding, purified MHC/competitive/radioactivity; filed as Kd, often an IC50 or EC50 that approximates it; ≥ and ≤ were set here for values at or beyond the usual limits of such assays
HLA-A*02:01 [1] = test: IEDB peptide-MHC binding, purified MHC/competitive/fluorescence; ≥ and ≤ were set here for values at or beyond the usual limits of such assays
HLA-A*69:01 = test: IEDB peptide-MHC binding, purified MHC/direct/fluorescence; filed as Kd, often an IC50 or EC50 that approximates it; ≥ and ≤ were set here for values at or beyond the usual limits of such assays
HLA-A*02:01 [2] = test: as above
HLA-B*15:01 = test: as above; settings: source organism: Haemophilus influenzae
HLA-B*51:01 = test: IEDB peptide-MHC binding, purified MHC/competitive/radioactivity; filed as Kd, often an IC50 or EC50 that approximates it; ≥ and ≤ were set here for values at or beyond the usual limits of such assays
HLA-A*31:01 = test: IEDB peptide-MHC binding, purified MHC/direct/fluorescence; filed as Kd, often an IC50 or EC50 that approximates it; ≥ and ≤ were set here for values at or beyond the usual limits of such assays; settings: source organism: SARS-CoV1
HLA-B*27:05 = test: as above; settings: source organism: SARS-CoV1
HLA-A*33:01 = test: IEDB peptide-MHC binding, purified MHC/competitive/radioactivity; filed as Kd, often an IC50 or EC50 that approximates it; ≥ and ≤ were set here for values at or beyond the usual limits of such assays; settings: source organism: SARS coronavirus Tor2
HLA-A*68:01 = test: as above
HLA-A*32:01 = test: as above
HLA-A*02:01 [3] = test: IEDB peptide-MHC binding, purified MHC/competitive/fluorescence; filed as Kd, often an IC50 or EC50 that approximates it; ≥ and ≤ were set here for values at or beyond the usual limits of such assays
HLA-A*26:01 = test: IEDB peptide-MHC binding, purified MHC/competitive/radioactivity; filed as Kd, often an IC50 or EC50 that approximates it; ≥ and ≤ were set here for values at or beyond the usual limits of such assays; settings: source organism: Dengue virus 3 Martinique/1243/1999
HLA-B*40:01 = test: IEDB peptide-MHC binding, purified MHC/direct/fluorescence; filed as Kd, often an IC50 or EC50 that approximates it; ≥ and ≤ were set here for values at or beyond the usual limits of such assays; settings: source organism: Mycobacterium tuberculosis variant bovis
HLA-A*30:02 = test: IEDB peptide-MHC binding, purified MHC/competitive/radioactivity; filed as Kd, often an IC50 or EC50 that approximates it; ≥ and ≤ were set here for values at or beyond the usual limits of such assays; settings: source organism: Dengue virus 3 Martinique/1243/1999
[4] = source organism: Dengue virus 1 Brazil/97-11/1997
[5] = source organism: Vaccinia virus WR
[6] = source organism: Zaire ebolavirus
[7] = source organism: Haemophilus influenzae
[8] = source organism: Dengue virus 4 Philippines/H241/1956
[9] = source organism: Dengue virus 3 Martinique/1243/1999
[10] = source organism: Entamoeba histolytica HM-1:IMSS

Q: For AEALKGMPIR, which Kd (HLA-A*30:01; [4]) is on record?
A: 1260 nM

Q: Which IC50 (HLA-A*02:01 [1]; [5]) does the source give for AFGLYKSIN here?
A: ≥ 245000 nM

Q: With AKLTEAITA as the sequence, how does the IC50 (HLA-A*02:01 [1]; [6]) read?
A: 28600 nM

Q: What does the source list for ALGYTTEEI?
A: Kd (HLA-A*69:01; [7]): 7480 nM; Kd (HLA-A*02:01 [2]; [7]): 338 nM

Q: For AMVPLVMVI, which Kd (HLA-B*15:01) is on record?
A: 834 nM

Q: What about the Kd (HLA-A*69:01; [7]) of the same sequence?
A: 3430 nM

Q: What about the Kd (HLA-A*02:01 [2]; [7]) of the same sequence?
A: 435 nM

Q: With APCKVPIEI as the sequence, how does the Kd (HLA-B*51:01; [8]) read?
A: ≥ 77400 nM

Q: With ATFSVPMEK as the sequence, how does the Kd (HLA-A*31:01) read?
A: 141 nM

Q: And the Kd (HLA-B*27:05)?
A: 19000 nM

Q: What about the Kd (HLA-A*33:01) of the same sequence?
A: 14500 nM

Q: And the Kd (HLA-A*68:01; source organism: SARS coronavirus Tor2)?
A: 0.161 nM

Q: How did the Kd (HLA-A*32:01; source organism: Dengue virus 2 Peru/IQT2913/1996) turn out when ATYEPDVDL was run?
A: 7390 nM

Q: How did the Kd (HLA-A*30:01; source organism: Vaccinia virus Copenhagen) turn out when CFKPALPTL was run?
A: 72 nM

Q: Which Kd (HLA-A*30:01; [8]) does the source give for DARVYADPMA here?
A: 9270 nM

Q: How did the Kd (HLA-A*02:01 [3]; source organism: Entamoeba histolytica) turn out when DLKPENILL was run?
A: ≥ 20000 nM

Q: Which Kd (HLA-B*51:01; [8]) does the source give for DPFPQSNSPI here?
A: 733 nM

Q: For DVFYLPPEK, which Kd (HLA-A*68:01; [9]) is on record?
A: 5.57 nM

Q: And the Kd (HLA-A*30:01; [9])?
A: 1370 nM

Q: With EDMLSVWNRV as the sequence, how does the Kd (HLA-A*32:01; [4]) read?
A: ≥ 34400 nM

Q: ELNYVLWEGG was tested. Which Kd (HLA-A*32:01; [8]) did it give?
A: 9340 nM

Q: With ETENILTVL as the sequence, how does the Kd (HLA-A*26:01) read?
A: 2940 nM

Q: How did the Kd (HLA-B*40:01) turn out when FEGIAVLGL was run?
A: 67.6 nM

Q: For FLWVIILFQ, which IC50 (HLA-A*02:01 [1]; [6]) is on record?
A: 12700 nM

Q: How did the Kd (HLA-B*51:01; [9]) turn out when FNYCEGTTVV was run?
A: 1220 nM

Q: With GAVKYLEGH as the sequence, how does the IC50 (HLA-A*02:01 [1]; [6]) read?
A: ≥ 521000 nM

Q: For GLCTLVAM, which Kd (HLA-A*02:01 [3]; source organism: Human herpesvirus 4 strain B95-8) is on record?
A: 2370 nM

Q: Which Kd (HLA-A*69:01; [10]) does the source give for GMLECGFPT here?
A: ≥ 5000 nM

Q: And the Kd (HLA-A*02:01 [2]; [10])?
A: 4.8 nM

Q: With GRLITVNPIV as the sequence, how does the Kd (HLA-A*30:01; source organism: Dengue virus 2 Jamaica/1409/1983) read?
A: ≥ 20400 nM

Q: How did the IC50 (HLA-A*02:01 [1]; [5]) turn out when GTLEFTPID was run?
A: ≥ 132000 nM

Q: Which IC50 (HLA-A*02:01 [1]; [6]) does the source give for GVKRLEELL here?
A: 49200 nM

Q: Which Kd (HLA-A*26:01) does the source give for GVVTKNGGY here?
A: 1210 nM

Q: And the Kd (HLA-A*30:02)?
A: ≥ 61300 nM

Q: Which Kd (HLA-A*32:01; [5]) does the source give for HINALEYII here?
A: 631 nM

Q: How did the Kd (HLA-A*32:01; [5]) turn out when HLMFYTLPI was run?
A: 0.177 nM
